Results as given in patent publication US11266616B2, “Compositions and methods for inhibiting kinase activity” (BRANDEIS UNIVERSITY, priority 2016, dated 2022).
Entries after “also recorded” stand apart in the source; their conditions may differ.

Legend:
[1] = system: dephosphorylated Aurora A kinase-TPX2 chimera; test: ITC binding to dephosphorylated Aurora A kinase-TPX2 chimera; set-up: species or system human; settings: PIF pocket occupied by TPX2; relative to Aurora A kinase alone
Procedure: (§1) Titrations were carried out using Nano ITC isothermal titration calorimeter (TA Instruments) and analyzed via the NanoAnalyze software using the independent fit model. Injectant was added in 1 μl volume, every 180 s, with a constant stirring speed at 350 rpm and at 25° C. Prior to ITC titration, both protein and TPX2 or monobody were dialyzed/resuspended in ITC buffer (20 mM TrisHCl, 200 mM NaCl, 3% (vol/vol) glycerol, 1 mM TCEP, pH 7.50).

[2] = target: T1, dephosphorylated Aurora A kinase (Homo sapiens, UniProt O14965); test: Isothermal titration calorimetry (ITC) binding to dephosphorylated Aurora A kinase; settings: for change of binding affinity of monobody to dephosphorylated Aurora A kinase: Aurora A pre-saturated with danusertib, FIGS. 11A-11B; for binding affinity of monobody to dephosphorylated Aurora A kinase / binding affinity of sGFP-monobody fusion to Aurora A kinase compared with the monobody: ITC; for binding affinity of monobody to dephosphorylated Aurora A kinase: FIG. 8; for binding affinity of sGFP-monobody fusion to Aurora A kinase compared with the monobody: FIGS. 17B, 18D
T1 construct: Codon-optimized Aurora A^122-403 in pET28a and untagged λPP in T7-7 plasmid were co-transformed in BL21(DE3) cells; inferred from pET28a and the NiNTA column) (cleaved yes); made in house; host or cells: E. coli BL21(DE3), co-expressed with lambda protein phosphatase
T1 sequence (O14965 122-403): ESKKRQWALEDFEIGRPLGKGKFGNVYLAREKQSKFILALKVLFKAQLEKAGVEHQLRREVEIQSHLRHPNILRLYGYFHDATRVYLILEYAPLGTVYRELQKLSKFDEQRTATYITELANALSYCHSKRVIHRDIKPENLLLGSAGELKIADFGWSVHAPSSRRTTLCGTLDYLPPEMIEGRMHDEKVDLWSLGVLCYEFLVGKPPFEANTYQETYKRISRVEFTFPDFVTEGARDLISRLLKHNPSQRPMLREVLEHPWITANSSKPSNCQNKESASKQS
Procedure: as §1

[3] = target: T2, Aurora A kinase (Homo sapiens, UniProt O14965); test: In vitro kinase assay (HPLC-based / ATP/NADH-coupled) of peptide substrate phosphorylation; format: biochemical; settings: for effect of monobody on Aurora A kinase activity: Lats2 peptide substrate, FIG. 9
T2 construct: Codon-optimized Aurora A^122-403 in pET28a and untagged λPP in T7-7 plasmid were co-transformed in BL21(DE3) cells; inferred from pET28a and the NiNTA column) (cleaved yes); made in house; host or cells: E. coli BL21(DE3)
T2 sequence (O14965 122-403): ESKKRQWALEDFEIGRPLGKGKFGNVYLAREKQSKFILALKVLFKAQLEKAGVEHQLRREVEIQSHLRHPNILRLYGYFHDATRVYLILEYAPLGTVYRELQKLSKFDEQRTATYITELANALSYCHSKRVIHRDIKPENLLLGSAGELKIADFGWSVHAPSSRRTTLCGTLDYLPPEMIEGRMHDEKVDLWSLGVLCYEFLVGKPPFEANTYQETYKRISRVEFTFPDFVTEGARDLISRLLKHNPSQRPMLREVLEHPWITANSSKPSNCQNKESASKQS
Procedure: Aurora A, either phosphorylated/dephosphorylated wild type or mutant protein, was mixed with either AP ([…]) (SEQ ID NO: 5), Kemptide (LRRASLG) (SEQ ID NO: 6), or Lats2 ([…]) (SEQ ID NO: 7), in the absence or presence of 50 μM TPX2 in kinase buffer (20 mM TrisHCl, 200 mM NaCl, 3% [vol/vol] glycerol, 20 mM MgCl2, 1 mM TCEP, pH 7.50). These substrates comprise the consensus sequence for Aurora A ([R/K/N]—R—X—[S/T]-B where B is any hydrophobic residue with the exception of Pro) (Ferrari et al., 2005, Biochem. J., 390(Pt 1):293-302; Ohashi et al., 2006, Oncogene, 25:7691-7702; Sardon et al., 2010, EMBO Reports, 11:977-984). Peptides were ordered through Genscript. For HPLC-based activity assays the following protocol was used. The reaction was initiated with the addition of 5 mM ATP. Then 5 μl time points were collected, resuspended in 10 μl 6% (vol/vol) trichloroacetic acid (in water) to quench the reaction, and neutralized with 50 μl 100 mM KH2PO4, pH 8.0 to provide the appropriate pH for nucleotide separation. The mixture was then passed through a 0.22 μm SpinX column to remove any protein precipitation. Reverse phase-high performance liquid chromatography (RP-HPLC) and an ACE 5 C18-AR, 100 Å pore size column, were used to separate nucleotides as well as peptides. For nucleotide runs, 2 μl of the aforementioned mixture was sufficient for analysis, whereas for the peptide runs the optimal injection volume was 20 μl. Nucleotide runs were routinely performed to ensure no unproductive hydrolysis was occurring during the experiment. An isocratic elution run in 100 mM KH2PO4, pH 6.0 was performed for this purpose. For the peptide runs, a gradient of 0-30% of elution buffer lasting 10 min at 0.4 mL/min was sufficient to separate phosphorylated from non-phosphorylated species. The running buffer was 0.1% TFA (vol/vol) in water, while the elution buffer was 100% acetonitrile. Lastly, to ensure full saturation of Aurora A by TPX2 and test these proteins were well behaved, a dose-dependence curve of the effect of TPX2 on Aurora A was obtained.
For ATP/NADH-coupled assay-based reaction, the following protocol was used. Phosphorylation of different concentrations of Lats2 peptide was monitored using the ATP/NADH coupled assay in a 96-well plate format. Reactions were carried in the presence of 1 μM dephosphorylated or 0.05 μM phosphorylated Aurora and 5 mM ATP in assay buffer (20 mM TrisHCl, 200 mM NaCl, 20 mM MgCl2, 10% (v/v) glycerol, 1 mM TCEP, pH 7.50) at 25° C.

[4] = system: Aurora A kinase in HEK293 cells; test: Immunofluorescence co-localization with Aurora A kinase in HEK293 cells; format: cell-based, human; settings: 7 hours after delivery, FIG. 17F
From the text: (§2) FIGS. 17A-17F present a set of plots, images and graphs showing data gathered using cultured HEK293 cells. In FIGS. 17A-17F, alternative names of the monobodies described herein are used. […] The error bars represent the standard error for the estimate of Kd and are a measure of the goodness of fit of the data. […] As observed in FIG. 17D, sGFP-Mb60's optimal cell delivery occurs after 7 hrs of exposure. FIG. 17E presents a bar graph of luminescence (mean±SEM, n=4 measurements/dataset) as a measure of HEK293 viability after cells were treated for 7 hours under the conditions indicated below the x-axis. Asterisks indicate significance levels of between-conditions t-test comparisons of the different conditions with liposome-treated control; […]; **=p≤0.01; ***=p≤0.001. […] Cells were quadruple stained to visualize DNA/sGFP(−Mbs)/Aurora A kinase/TPX2. […] In the images, DNA stained blue; GFP stained green; Aurora A kinase stained red; and […].

[5] = system: HEK293 cells; test: HEK293 viability (luminescence) after 7 hours of treatment; format: cell-based, human; settings: various monobody concentrations, FIG. 17E
From the text: as §2

Molecule: CO[C@@H](C(=O)N1Cc2[nH]nc(NC(=O)c3ccc(N4CCN(C)CC4)cc3)c2C1)c1ccccc1 [danusertib, reference compound]
- binding of danusertib to Aurora A kinase chimera weaker than binding to Aurora A kinase [1]: about 4 times
- weakening of binding affinity of danusertib ([2]; Aurora A pre-saturated with activating monobody Mb54 (aka Mb1), FIG. 10C): 19 fold
- tightening of binding affinity of danusertib ([2]; Aurora A pre-saturated with inhibiting monobody Mb60 (aka Mb2), FIG. 10C): 4.7 fold
- binding of danusertib to Aurora A tighter in the presence of PS48 ([2]; saturating levels of PS48 vs none): about 2 times

B1: Mb54: monobody binding allosteric site (PIF pocket) of Aurora A kinase, SEQ ID NO: 11; activator (protein, listed as Homo sapiens)
chain: GSVSSVPTKLEVVAATPTSLLISWDAQTYQMYDYVSYYRITYGETGGNSPVQEFTVPGYYSTATISGLKPGVDYTITVYAEGYYSSYSPISINYRT
- change of binding affinity of monobody to dephosphorylated Aurora A kinase [2]: weakened
- binding affinity of monobody to dephosphorylated Aurora A kinase [2]: low nanomolar affinities
- Activity of Monobody on Aurora A kinase [3]: activator
- effect of monobody on Aurora A kinase activity [3]: strongest activator; also recorded: activate; also recorded: activation

B2: sGFP-Mb54: fusion polypeptide of supercharged GFP and activating monobody Mb54 (aka Mb1) (protein)
chain: GSVSSVPTKLEVVAATPTSLLISWDAQTYQMYDYVSYYRITYGETGGNSPVQEFTVPGYYSTATISGLKPGVDYTITVYAEGYYSSYSPISINYRT
modifications: left off: large carriers
- co-localization with Aurora A kinase [4]: strong co-localization
- binding affinity of sGFP-monobody fusion to Aurora A kinase compared with the monobody [2]: closely mimicked the binding
- cell death / viability of HEK293 cells [5]: did not cause cell death

B3: Mb44: monobody binding allosteric site of Aurora A kinase, SEQ ID NO: 1; inhibitor (protein, listed as Homo sapiens)
chain: GSVSSVPTKLEVVAATPTSLLISWDAPAVTVDFYVITYGETGGYSYPWQEFEVPGSKSTATISGLKPGVDYTITVYADYGQYFYSPISINYRT
- binding affinity of monobody to dephosphorylated Aurora A kinase [2]: low μM levels
- Activity of Monobody on Aurora A kinase [3]: inhibitor
- effect of monobody on Aurora A kinase activity [3]: strongly inhibit

B4: Mb6: monobody binding allosteric site of Aurora A kinase, SEQ ID NO: 10; activity neutral (protein, listed as Homo sapiens)
chain: GSVSSVPTKLEVVAATPTSLLISWDAFGHQYEPVYYYRITYGETGGNSPVQEFTVPGYYSTATISGLKPGVDYTITVYAWYVDGSYSSPISINYRT
- binding affinity of monobody to dephosphorylated Aurora A kinase [2]: low nM affinity; also recorded: low nanomolar affinities
- Activity of Monobody on Aurora A kinase [3]: neutral
- effect of monobody on Aurora A kinase activity [3]: weakest regulator; also recorded: did not significantly modulate; also recorded: neutral activity

B5: sGFP-Mb6: fusion polypeptide of supercharged GFP and activity-neutral monobody Mb6 (protein)
chain: GSVSSVPTKLEVVAATPTSLLISWDAFGHQYEPVYYYRITYGETGGNSPVQEFTVPGYYSTATISGLKPGVDYTITVYAWYVDGSYSSPISINYRT
modifications: left off: large carriers
- co-localization with Aurora A kinase [4]: strong co-localization
- cell death / viability of HEK293 cells [5]: statistically significant cell death

B6: Mb56: monobody binding allosteric site of Aurora A kinase, SEQ ID NO: 3; inhibitor (protein, listed as Homo sapiens)
chain: GSVSSVPTKLEVVAATPTSLLISWDAMSDWYYWVDYYRITYGETGGNSPVQEFTVPGSYSTATISGLKPGVDYTITVYASDDVWGDYSPISINYRT
- binding affinity of monobody to dephosphorylated Aurora A kinase [2]: low nanomolar affinities
- Activity of Monobody on Aurora A kinase [3]: inhibitor
- effect of monobody on Aurora A kinase activity [3]: strongly inhibit

B7: Mb60: monobody binding allosteric site of Aurora A kinase, SEQ ID NO: 4; inhibitor (protein, listed as Homo sapiens)
chain: GSVSSVPTKLEVVAATPTSLLISWDAPAVTVVHYVITYGETGGNSPVQEFTVPGSKSTATISGLKPGVDYTITVYAIDFYWGSYSPISINYRT
- change of binding affinity of monobody to dephosphorylated Aurora A kinase [2]: tightened
- binding affinity of monobody to dephosphorylated Aurora A kinase [2]: low μM levels
- Activity of Monobody on Aurora A kinase [3]: inhibitor
- effect of monobody on Aurora A kinase activity [3]: inhibitor; also recorded: inhibited; also recorded: strong inhibition

B8: sGFP-Mb60: fusion polypeptide of supercharged GFP and inhibiting monobody Mb60 (aka Mb2) (protein)
chain: GSVSSVPTKLEVVAATPTSLLISWDAPAVTVVHYVITYGETGGNSPVQEFTVPGSKSTATISGLKPGVDYTITVYAIDFYWGSYSPISINYRT
modifications: left off: large carriers
- co-localization with Aurora A kinase [4]: strong co-localization
- binding affinity of sGFP-monobody fusion to Aurora A kinase compared with the monobody [2]: comparable; also recorded: closely mimicked the binding
- inhibition of Aurora A kinase activity by sGFP fusion compared with the monobody ([3]; FIG. 17C): same extent as Mb60
- cell death / viability of HEK293 cells [5]: statistically significant cell death

B9: Mb51: monobody binding allosteric site of Aurora A kinase, SEQ ID NO: 2; inhibitor (protein, listed as Homo sapiens)
chain: GSVSSVPTKLEVVAATPTSLLISWDAKPMSYEPVYYYRITYGETGGNSPVQEFTVPGYYSTATISGLKPGVDYTITVYADSMSSYYYSPISINYRT
- binding affinity of monobody to dephosphorylated Aurora A kinase [2]: low nanomolar affinities
- Activity of Monobody on Aurora A kinase [3]: inhibitor
- effect of monobody on Aurora A kinase activity [3]: strongly inhibit
